1 substance from patent US20050106145A1 can be followed below.

Experiment [1] addresses human tenascin-C (human) (UniProt P24821). Kind of experiment: ELISA, tenascin 5 µg/ml. For orientation: In an ELISA, binding on a coated surface is turned into a signal by an enzyme label.
The target is the same in experiment [2]. Kind of experiment: BIAcore. A general note: In SPR one partner is held on a chip, and binding of the other changes the refractive index at the surface.

human tenascin-C (human), sequence (P24821 23-2201 limits assumed): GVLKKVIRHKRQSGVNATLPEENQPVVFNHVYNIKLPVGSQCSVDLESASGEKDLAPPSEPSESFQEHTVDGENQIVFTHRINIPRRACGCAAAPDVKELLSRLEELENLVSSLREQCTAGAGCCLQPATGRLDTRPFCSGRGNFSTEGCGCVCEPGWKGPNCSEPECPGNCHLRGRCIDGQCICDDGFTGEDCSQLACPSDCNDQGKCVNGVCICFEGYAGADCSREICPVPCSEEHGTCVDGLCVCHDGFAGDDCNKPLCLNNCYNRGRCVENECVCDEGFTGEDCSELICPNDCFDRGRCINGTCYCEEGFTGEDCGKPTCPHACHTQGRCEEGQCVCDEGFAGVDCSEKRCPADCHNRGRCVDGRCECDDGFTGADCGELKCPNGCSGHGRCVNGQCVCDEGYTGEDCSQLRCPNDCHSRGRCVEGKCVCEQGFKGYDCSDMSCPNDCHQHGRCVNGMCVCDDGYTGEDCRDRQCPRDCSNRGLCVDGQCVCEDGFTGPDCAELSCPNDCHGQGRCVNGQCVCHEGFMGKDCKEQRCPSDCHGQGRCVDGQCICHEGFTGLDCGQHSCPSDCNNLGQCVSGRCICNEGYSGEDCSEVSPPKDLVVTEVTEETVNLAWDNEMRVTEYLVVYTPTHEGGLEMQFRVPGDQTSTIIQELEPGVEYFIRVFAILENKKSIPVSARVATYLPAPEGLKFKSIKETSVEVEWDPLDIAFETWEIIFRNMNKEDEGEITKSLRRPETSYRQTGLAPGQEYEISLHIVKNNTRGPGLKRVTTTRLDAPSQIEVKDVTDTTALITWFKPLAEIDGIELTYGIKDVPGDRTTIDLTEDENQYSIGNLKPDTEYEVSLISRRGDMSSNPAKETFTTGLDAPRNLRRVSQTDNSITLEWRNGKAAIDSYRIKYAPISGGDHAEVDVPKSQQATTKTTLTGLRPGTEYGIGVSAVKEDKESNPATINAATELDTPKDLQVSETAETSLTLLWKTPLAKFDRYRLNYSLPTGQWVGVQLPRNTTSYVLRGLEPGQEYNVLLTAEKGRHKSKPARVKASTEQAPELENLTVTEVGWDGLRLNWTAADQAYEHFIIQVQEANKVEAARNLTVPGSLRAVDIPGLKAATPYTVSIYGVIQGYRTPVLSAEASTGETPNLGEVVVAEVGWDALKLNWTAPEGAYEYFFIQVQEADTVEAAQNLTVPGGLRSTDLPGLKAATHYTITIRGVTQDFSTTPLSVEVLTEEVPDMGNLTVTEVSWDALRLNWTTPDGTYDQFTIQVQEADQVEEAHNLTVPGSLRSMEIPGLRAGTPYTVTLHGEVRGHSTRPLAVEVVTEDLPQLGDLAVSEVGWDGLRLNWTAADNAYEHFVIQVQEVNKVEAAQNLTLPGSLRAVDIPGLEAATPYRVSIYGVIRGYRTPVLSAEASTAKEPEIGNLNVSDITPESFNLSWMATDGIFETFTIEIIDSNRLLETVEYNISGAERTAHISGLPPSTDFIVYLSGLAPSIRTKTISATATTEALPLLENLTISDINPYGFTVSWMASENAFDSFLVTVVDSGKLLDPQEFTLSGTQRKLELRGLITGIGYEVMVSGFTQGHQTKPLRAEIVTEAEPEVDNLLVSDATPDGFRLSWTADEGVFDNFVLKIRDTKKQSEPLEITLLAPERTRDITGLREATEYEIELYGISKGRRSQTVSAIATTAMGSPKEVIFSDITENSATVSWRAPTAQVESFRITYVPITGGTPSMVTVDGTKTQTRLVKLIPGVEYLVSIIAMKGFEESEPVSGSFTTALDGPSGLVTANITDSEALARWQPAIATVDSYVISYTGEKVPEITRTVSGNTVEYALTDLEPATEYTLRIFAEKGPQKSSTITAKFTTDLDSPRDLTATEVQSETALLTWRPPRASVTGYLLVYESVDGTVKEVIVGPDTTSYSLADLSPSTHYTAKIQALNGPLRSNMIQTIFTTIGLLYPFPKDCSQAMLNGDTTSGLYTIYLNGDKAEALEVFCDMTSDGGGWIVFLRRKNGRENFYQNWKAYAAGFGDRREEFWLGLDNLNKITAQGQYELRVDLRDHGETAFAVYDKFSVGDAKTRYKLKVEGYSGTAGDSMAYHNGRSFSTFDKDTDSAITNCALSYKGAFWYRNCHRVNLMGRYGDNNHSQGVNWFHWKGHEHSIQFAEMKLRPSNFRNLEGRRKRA

BC4 anti-tenascin monoclonal antibody had an EC50 (read off the curve) in experiment [1] of 0.2 µg/mL. The substance further yielded a Kd in experiment [2] of 4.9 nM.

For orientation: EC50 (read off the curve) means the concentration giving half of the maximal effect. Read a high EC50 (read off the curve) as a need for much substance. A word on the Kd: it is the constant that tells how readily two partners part at equilibrium. A high value points to weaker binding.
